Biological target: F-ΔC2-WWP2 (UniProt O00308)
Assay: fluorescence polarisation

## non-phosphorylated PTEN (n-PTEN) (natural protein)
  Kd: 20 µM

From paper PMC6093203
